Source: publication PMC5707354 (Nature Communications, 2017)
Each block holds one molecule with its values, some of them ahead of it.

Key:
[1] = target: N-terminal tail domain of myosin VI (NMVITAIL 814-1060) (human); test: fluorescence polarisation; fluorescence anisotropy; unlabelled protein titrated against the FITC-labelled partner (NMVITAIL against FITC-CBD and CBD against FITC-NMVITAIL); 25 C, 50 mM Tris-HCl pH 7.5, 150 mM NaCl, 1 mM DTT
[2] = target: Myosin VI tail (MVITAIL 814-1253) (human); test: FRET or BRET; AF555-MVITAIL titrated against FITC-MVITAIL in the presence of 20 uM NDP52 and DNA; monomer to dimer; 25 C, 50 mM Tris-HCl pH 7.5, 150 mM NaCl, 1 mM DTT
[3] = target: Myosin VI tail (MVITAIL 814-1253) (human); test: FRET or BRET; AF555-MVITAIL and FITC-MVITAIL in the presence of 20 uM DNA; monomer to dimer; 25 C, 50 mM Tris-HCl pH 7.5, 150 mM NaCl, 1 mM DTT
[4] = target: Myosin VI tail (MVITAIL 814-1253) (human); test: FRET or BRET; AF555-labelled pool titrated against the FITC-labelled pool of the same construct in the presence of 20 uM NDP52; monomer to dimer; 25 C, 50 mM Tris-HCl pH 7.5, 150 mM NaCl, 1 mM DTT
[5] = target: Myosin VI tail (MVITAIL 814-1253) (human); test: FRET or BRET; AF555-labelled pool titrated against the FITC-labelled pool of the same construct, no additive; monomer to dimer; 25 C, 50 mM Tris-HCl pH 7.5, 150 mM NaCl, 1 mM DTT
[6] = target: Cargo binding domain of myosin VI (CBD 1060-1253) (human); test: fluorescence polarisation; fluorescence anisotropy; unlabelled protein titrated against the FITC-labelled partner (NMVITAIL against FITC-CBD and CBD against FITC-NMVITAIL); 25 C, 50 mM Tris-HCl pH 7.5, 150 mM NaCl, 1 mM DTT
[7] = target: Cargo binding domain of myosin VI (CBD 1060-1253) (human); test: FRET or BRET; Alexa555-NMVITAIL titrated to FITC-CBD (1 uM); 25 C, 50 mM Tris-HCl pH 7.5, 150 mM NaCl, 1 mM DTT; quadratic binding fit
[8] = target: N-terminal tail domain of myosin VI (NMVITAIL 814-1060) (human); test: FRET or BRET; AF555-labelled pool titrated against the FITC-labelled pool of the same construct, no additive; monomer to dimer; 25 C, 50 mM Tris-HCl pH 7.5, 150 mM NaCl, 1 mM DTT
NDP52 [9] = target: T1, NDP52 (Human, UniProt Q13137 1-446); test: FRET or BRET; FITC-MVI_TAIL constructs and Alexa555-NDP52 (1 uM); 25 C, 50 mM Tris-HCl pH 7.5, 150 mM NaCl, 1 mM DTT
T1 sequence: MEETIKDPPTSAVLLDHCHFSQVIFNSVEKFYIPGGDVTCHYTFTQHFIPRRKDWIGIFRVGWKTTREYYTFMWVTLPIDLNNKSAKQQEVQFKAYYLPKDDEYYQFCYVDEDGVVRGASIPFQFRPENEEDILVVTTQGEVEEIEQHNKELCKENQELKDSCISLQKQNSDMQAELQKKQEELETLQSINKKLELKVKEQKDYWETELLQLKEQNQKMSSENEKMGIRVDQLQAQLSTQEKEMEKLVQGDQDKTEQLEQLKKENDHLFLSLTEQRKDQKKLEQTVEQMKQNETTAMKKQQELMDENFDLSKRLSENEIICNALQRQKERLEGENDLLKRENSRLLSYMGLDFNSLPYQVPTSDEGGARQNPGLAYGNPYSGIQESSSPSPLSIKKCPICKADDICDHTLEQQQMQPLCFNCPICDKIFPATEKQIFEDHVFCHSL

[10] = target: Full-length myosin VI (non-insert isoform), recombinant, co-expressed with calmodulin (human | Xenopus) (UniProt Q9UM54)
NDP52 [11] = target: T1, NDP52
CBD = CBD (Human, UniProt Q9UM54-5 1060-1253); test: fluorescence anisotropy; FAM-DNA 50 nM; assay buffer, salt, pH and temperature not given in the material (duplex annealing in water or 50 mM Tris-HCl pH 7.5, 150 mM NaCl, 3 mM MgCl2); conditions: protein: recombinant, tags: His-tag (pET28)
MVITAIL(W1221A) = MVITAIL(W1221A) (Human, UniProt Q9UM54-5 814-1253, W1221A); test: as above; conditions: protein: recombinant; tags: His-tag (pET151), TEV-cleaved; label: 3' FAM on strand A; blunt
MVITAIL = MVITAIL (Human, UniProt Q9UM54-5 814-1253); test: as above; conditions: protein: recombinant; tags: His-tag (pET151), TEV-cleaved; label: 3' FAM on strand A; blunt
NDP52 [12] = target: T1, NDP52; test: fluorescence intensity titration; FAM-DNA 50 nM; assay buffer, salt, pH and temperature not given in the material (duplex annealing in water or 50 mM Tris-HCl pH 7.5, 150 mM NaCl, 3 mM MgCl2); conditions: protein: recombinant; tags: His-tag (pET151), TEV-cleaved; chain copies: 2; label: 3' FAM on strand A; blunt
NDP52 (recombinant) = target: T2, NDP52 (recombinant) (UniProt Q13137 1-446, Alexa Fluor 555 label in the FRET titration with MVI_TAIL; unlabelled where added as a third component); test: FRET or BRET; FITC-MVI_TAIL constructs and Alexa555-NDP52 (1 uM); 25 C, 50 mM Tris-HCl pH 7.5, 150 mM NaCl, 1 mM DTT; conditions: both partners purified
T2 construct: NDP52 (SKICH domain, coiled-coil, two zinc fingers); also called Alexa555-NDP52; source: E. coli BL21 DE3, purified (HisTrap, Superdex 200)
T2 sequence (looked up): T1 sequence

[13] = target: Myosin VI tail, large insert (MVITAIL (large insert) 814-1284) (human); test: FRET or BRET; FITC-MVITAIL constructs and Alexa555-NDP52 (1 uM NDP52 by the legend of Fig. 4d); 25 C, 50 mM Tris-HCl pH 7.5, 150 mM NaCl, 1 mM DTT; quadratic binding fit
[14] = target: Myosin VI tail RRL/RRA mutant (MVITAIL RRL/RRA, L1118A) (human); test: as above
[15] = target: Myosin VI tail (MVITAIL 814-1253) (human); test: as above
[16] = target: Myosin VI tail RRL/ARL mutant (MVITAIL RRL/ARL, R1116A) (human); test: as above
[17] = target: Myosin VI tail RRL/AAA mutant (MVITAIL RRL/AAA) (human); test: as above
[18] = label: 3' FAM on strand A, blunt

Sequence of MVITAIL(W1221A) (Q9UM54 other isoform, or with tags, fused parts or gaps W1221A | W1221A W1221A): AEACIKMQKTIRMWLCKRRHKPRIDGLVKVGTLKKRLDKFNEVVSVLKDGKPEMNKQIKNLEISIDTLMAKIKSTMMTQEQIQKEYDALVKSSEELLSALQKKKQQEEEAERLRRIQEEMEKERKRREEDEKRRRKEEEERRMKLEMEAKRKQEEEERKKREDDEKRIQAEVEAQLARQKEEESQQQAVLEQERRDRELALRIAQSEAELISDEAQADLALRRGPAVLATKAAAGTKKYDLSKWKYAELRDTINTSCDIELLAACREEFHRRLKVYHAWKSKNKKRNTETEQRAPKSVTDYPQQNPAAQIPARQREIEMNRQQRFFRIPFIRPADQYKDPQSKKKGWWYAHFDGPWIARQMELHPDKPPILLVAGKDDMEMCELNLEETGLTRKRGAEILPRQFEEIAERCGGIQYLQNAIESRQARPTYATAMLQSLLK
Sequence of MVITAIL (Q9UM54 other isoform, or with tags, fused parts or gaps): as the sequence (Q9UM54 other isoform, or with tags, fused parts or gaps W1221A | W1221A W1221A) above, with A408W counted along it

B1: ds40 (dsDNA)
DNA 1: TTAGTTGTTCGTAGTGCTCGTCTGGCTCTGGATTACCCGC
DNA 2: GCGGGTAATCCAGAGCCAGACGAGCACTACGAACAACTAA
Kd (CBD; [18]): 0.1 µM
Kd (MVITAIL(W1221A)): 0.3 ± 0.03 µM
Kd (MVITAIL): 2.5 µM
Kd (NDP52 [12]): 0.08 ± 0.025 µM

B2: ss40 (ssDNA)
DNA: B1 DNA 1
Kd (CBD; label: 3' FAM): 0.12 ± 0.035 µM

B4: ds15 (15 bp) (dsDNA)
DNA 1: TTAGTTGTTCTCTGG
DNA 2: CCAGAGAACAACTAA
Kd (CBD; [18]): 0.5 ± 0.045 µM

B5: ss20 (ssDNA)
DNA: TCTGGCTCTGGATTACCCGC
Kd (CBD; label: 3' FAM): 0.11 ± 0.035 µM

B6: dT20 (ssDNA)
DNA: TTTTTTTTTTTTTTTTTTTT
Kd (CBD): 0.12 ± 0.025 µM

Now from value to molecule:

Kd [1]: 4.2 µM
Molecule: Cargo binding domain of myosin VI (CBD 1060-1253) (domain or fragment)

Kd [2]: 2.5 µM
Kd [3]: 29 µM
Kd [4]: 2.3 µM
Kd [5]: 27 µM
Molecule: Myosin VI tail (MVITAIL 814-1253) (domain or fragment)

Kd [6]: 4 µM
Kd [7]: 4.5 µM
Kd [8]: 3.1 µM
Molecule: N-terminal tail domain of myosin VI (NMVITAIL 814-1060) (domain or fragment)

fold decrease in affinity against wild-type MVI TAIL (NDP52 [9]): 10 fold
Molecule: MVI_(TAIL) with the leucine of the RRL motif removed (RRA) (domain or fragment)

steady-state actin-activated ATPase rate constant of MVI, reduction on addition of NDP52 [10]: 50%
velocity of actin filaments in the sliding filament assay with MVI pre-incubated with / immobilised through NDP52 (0.1, 0.5 or 1 μM); two populations, 50–60 and 90 nm s^−1 (NDP52 [11]): 90 nm/s
Molecule: Full-length myosin VI (non-insert isoform), recombinant, co-expressed with calmodulin (from UniProt Q9UM54-5 1-1253; P0DP33 1-149) (complex)

fold reduction of binding against wild-type MVI_TAIL (NDP52 (recombinant)): 4 fold
B3: MVI_(TAIL) (large insert) (domain or fragment)
chain: AEACIKMQKTIRMWLCKRRHKPRIDGLVKVGTLKKRLDKFNEVVSVLKDGKPEMNKQIKNLEISIDTLMAKIKSTMMTQEQIQKEYDALVKSSEELLSALQKKKQQEEEAERLRRIQEEMEKERKRREEDEKRRRKEEEERRMKLEMEAKRKQEEEERKKREDDEKRIQAEVEAQLARQKEEESQQQAVLEQERRDRELALRIAQSEAELISDEAQADLALRSLDSYPVTSKNDGTRPKMTPEQMAKEMSEFLSRGPAVLATKAAAGTKKYDLSKWKYAELRDTINTSCDIELLAACREEFHRRLKVYHAWKSKNKKRNTETEQRAPKSVTDYAQQNPAAQIPARQREIEMNRQQRFFRIPFIRPADQYKDPQSKKKGWWYAHFDGPWIARQMELHPDKPPILLVAGKDDMEMCELNLEETGLTRKRGAEILPRQFEEIWERCGGIQYLQNAIESRQARPTYATAMLQSLLK
modifications: FITC label

Kd [13]: 9.8 µM
Kd [14]: 21 µM
Kd [15]: 3.2 µM
Kd [16]: 4.6 µM
Kd [17]: 63 µM
B7: NDP52 (1-end) (natural protein)
chain: T1 sequence
modifications: Alexa Fluor 555 label (site not stated)
